Results taken from US20220074941A1, “HSP90 COMBINATION THERAPY” (Sloan-Kettering Institute for Cancer Research, priority 2011, published 2022).

B1: CPNE3 (protein, UniProt O75131 1-537, looked up)
Copine-3: MAAQCVTKVALNVSCANLLDKDIGSKSDPLCVLFLNTSGQQWYEVERTERIKNCLNPQFSKTFIIDYYFEVVQKLKFGVYDIDNKTIELSDDDFLGECECTLGQIVSSKKLTRPLVMKTGRPAGKGSITISAEEIKDNRVVLFEMEARKLDNKDLFGKSDPYLEFHKQTSDGNWLMVHRTEVVKNNLNPVWRPFKISLNSLCYGDMDKTIKVECYDYDNDGSHDLIGTFQTTMTKLKEASRSSPVEFECINEKKRQKKKSYKNSGVISVKQCEITVECTFLDYIMGGCQLNFTVGVDFTGSNGDPRSPDSLHYISPNGVNEYLTALWSVGLVIQDYDADKMFPAFGFGAQIPPQWQVSHEFPMNFNPSNPYCNGIQGIVEAYRSCLPQIKLYGPTNFSPIINHVARFAAAATQQQTASQYFVLLIITDGVITDLDETRQAIVNASRLPMSIIIVGVGGADFSAMEFLDGDGGSLRSPLGEVAIRDIVQFVPFRQFQNAPKEALAQCVLAEIPQQVVGYFNTYKLLPPKNPATKQQKQ
B2: SDCCAG1 (protein, UniProt O60524 1-1076, looked up)
Ribosome quality control …: MKSRFSTIDLRAVLAELNASLLGMRVNNVYDVDNKTYLIRLQKPDFKATLLLESGIRIHTTEFEWPKNMMPSSFAMKCRKHLKSRRLVSAKQLGVDRIVDFQFGSDEAAYHLIIELYDRGNIVLTDYEYVILNILRFRTDEADDVKFAVRERYPLDHARAAEPLLTLERLTEIVASAPKGELLKRVLNPLLPYGPALIEHCLLENGFSGNVKVDEKLETKDIEKVLVSLQKAEDYMKTTSNFSGKGYIIQKREIKPSLEADKPVEDILTYEEFHPFLFSQHSQCPYIEFESFDKAVDEFYSKIEGQKIDLKALQQEKQALKKLDNVRKDHENRLEALQQAQEIDKLKGELIEMNLQIVDRAIQVVRSALANQIDWTEIGLIVKEAQAQGDPVASAIKELKLQTNHVTMLLRNPYLLSEEEDDDVDGDVNVEKNETEPPKGKKKKQKNKQLQKPQKNKPLLVDVDLSLSAYANAKKYYDHKRYAAKKTQKTVEAAEKAFKSAEKKTKQTLKEVQTVTSIQKARKVYWFEKFLWFISSENYLIIGGRDQQQNEIIVKRYLTPGDIYVHADLHGATSCVIKNPTGEPIPPRTLTEAGTMALCYSAAWDARVITSAWWVYHHQVSKTAPTGEYLTTGSFMIRGKKNFLPPSYLMMGFSFLFKVDESCVWRHQGERKVRVQDEDMETLASCTSELISEEMEQLDGGDTSSDEDKEEHETPVEVELMTQVDQEDITLQSGRDELNEELIQEESSEDEGEYEEVRKDQDSVGEMKDEGEETLNYPDTTIDLSHLQPQRSIQKLASKEESSNSSDSKSQSRRHLSAKERREMKKKKLPSDSGDLEALEGKDKEKESTVHIETHQNTSKNVAAVQPMKRGQKSKMKKMKEKYKDQDEEDRELIMKLLGSAGSNKEEKGKKGKKGKTKDEPVKKQPQKPRGGQRVSDNIKKETPFLEVITHELQDFAVDDPHDDKEEQDLDQQGNEENLFDSLTGQPHPEDVLLFAIPICAPYTTMTNYKYKVKLTPGVQKKGKAAKTALNSFMHSKEATAREKDLFRSVKDTDLSRNIPGKVKVSAPNLLNVKRK
B3: NCKAP1 (protein, UniProt Q9Y2A7 2-1128, looked up)
Nck-associated protein 1: SRSVLQPSQQKLAEKLTILNDRGVGMLTRLYNIKKACGDPKAKPSYLIDKNLESAVKFIVRKFPAVETRNNNQQLAQLQKEKSEILKNLALYYFTFVDVMEFKDHVCELLNTIDVCQVFFDITVNFDLTKNYLDLIITYTTLMILLSRIEERKAIIGLYNYAHEMTHGASDREYPRLGQMIVDYENPLKKMMEEFVPHSKSLSDALISLQMVYPRRNLSADQWRNAQLLSLISAPSTMLNPAQSDTMPCEYLSLDAMEKWIIFGFILCHGILNTDATALNLWKLALQSSSCLSLFRDEVFHIHKAAEDLFVNIRGYNKRINDIRECKEAAVSHAGSMHRERRKFLRSALKELATVLSDQPGLLGPKALFVFMALSFARDEIIWLLRHADNMPKKSADDFIDKHIAELIFYMEELRAHVRKYGPVMQRYYVQYLSGFDAVVLNELVQNLSVCPEDESIIMSSFVNTMTSLSVKQVEDGEVFDFRGMRLDWFRLQAYTSVSKASLGLADHRELGKMMNTIIFHTKMVDSLVEMLVETSDLSIFCFYSRAFEKMFQQCLELPSQSRYSIAFPLLCTHFMSCTHELCPEERHHIGDRSLSLCNMFLDEMAKQARNLITDICTEQCTLSDQLLPKHCAKTISQAVNKKSKKQTGKKGEPEREKPGVESMRKNRLVVTNLDKLHTALSELCFSINYVPNMVVWEHTFTPREYLTSHLEIRFTKSIVGMTMYNQATQEIAKPSELLTSVRAYMTVLQSIENYVQIDITRVFNNVLLQQTQHLDSHGEPTITSLYTNWYLETLLRQVSNGHIAYFPAMKAFVNLPTENELTFNAEEYSDISEMRSLSELLGPYGMKFLSESLMWHISSQVAELKKLVVENVDVLTQMRTSFDKPDQMAALFKRLSSVDSVLKRMTIIGVILSFRSLAQEALRDVLSYHIPFLVSSIEDFKDHIPRETDMKVAMNVYELSSAAGLPCEIDPALVVALSSQKSENISPEEEYKIACLLMVFVAVSLPTLASNVMSQYSPAIEGHCNNIHCLAKAINQIAAALFTIHKGSIEDRLKEFLALASSSLLKIGQETDKTTTRNRESVYLLLDMIVQESPFLTMDLLESCFPYVLLRNAYHAVYKQSVTSSA
B4: TPP1 (protein, UniProt O14773 196-563, looked up)
Tripeptidyl-peptidase 1: LHLGVTPSVIRKRYNLTSQDVGSGTSNNSQACAQFLEQYFHDSDLAQFMRLFGGNFAHQASVARVVGQQGRGRAGIEASLDVQYLMSAGANISTWVYSSPGRHEGQEPFLQWLMLLSNESALPHVHTVSYGDDEDSLSSAYIQRVNTELMKAAARGLTLLFASGDSGAGCWSVSGRHQFRPTFPASSPYVTTVGGTSFQEPFLITNEIVDYISGGGFSNVFPRPSYQEEAVTKFLSSSPHLPPSSYFNASGRAYPDVAALSDGYWVVSNRVPIPWVSGTSASTPVFGGILSLINEHRILSGRPPLGFLNPRLYQQHGAGLFDVTRGCHESCLDEEVEGQGFCSGPGWDPVTGWGTPNFPALLKTLLNP
B5: NUP54 (protein, UniProt Q7Z3B4 1-507, looked up)
Nucleoporin p54: MAFNFGAPSGTSGTAAATAAPAGGFGGFGTTSTTAGSAFSFSAPTNTGTTGLFGGTQNKGFGFGTGFGTTTGTSTGLGTGLGTGLGFGGFNTQQQQQTTLGGLFSQPTQAPTQSNQLINTASALSAPTLLGDERDAILAKWNQLQAFWGTGKGYFNNNIPPVEFTQENPFCRFKAVGYSCMPSNKDEDGLVVLVFNKKETEIRSQQQQLVESLHKVLGGNQTLTVNVEGTKTLPDDQTEVVIYVVERSPNGTSRRVPATTLYAHFEQANIKTQLQQLGVTLSMTRTELSPAQIKQLLQNPPAGVDPIIWEQAKVDNPDSEKLIPVPMVGFKELLRRLKVQDQMTKQHQTRLDIISEDISELQKNQTTSVAKIAQYKRKLMDLSHRTLQVLIKQEIQRKSGYAIQADEEQLRVQLDTIQGELNAPTQFKGRLNELMSQIRMQNHFGAVRSEERYYIDADLLREIKQHLKQQQEGLSHLISIIKDDLEDIKLVEHGLNETIHIRGGVFS
B6: NUP85 (protein, UniProt Q9BW27 1-656, looked up)
Nuclear pore complex protein …: MEELDGEPTVTLIPGVNSKKNQMYFDWGPGEMLVCETSFNKKEKSEMVPSCPFIYIIRKDVDVYSQILRKLFNESHGIFLGLQRIDEELTGKSRKSQLVRVSKNYRSVIRACMEEMHQVAIAAKDPANGRQFSSQVSILSAMELIWNLCEILFIEVAPAGPLLLHLLDWVRLHVCEVDSLSADVLGSENPSKHDSFWNLVTILVLQGRLDEARQMLSKEADASPASAGICRIMGDLMRTMPILSPGNTQTLTELELKWQHWHEECERYLQDSTFATSPHLESLLKIMLGDEAALLEQKELLSNWYHFLVTRLLYSNPTVKPIDLHYYAQSSLDLFLGGESSPEPLDNILLAAFEFDIHQVIKECSIALSNWWFVAHLTDLLDHCKLLQSHNLYFGSNMREFLLLEYASGLFAHPSLWQLGVDYFDYCPELGRVSLELHIERIPLNTEQKALKVLRICEQRQMTEQVRSICKILAMKAVRNNRLGSALSWSIRAKDAAFATLVSDRFLRDYCERGCFSDLDLIDNLGPAMMLSDRLTFLGKYREFHRMYGEKRFADAASLLLSLMTSRIAPRSFWMTLLTDALPLLEQKQVIFSAEQTYELMRCLEDLTSRRPVHGESDTEQLQDDDIETTKVEMLRLSLARNLARAIIREGSLEGS

Legend:
[1] = tested on: Hsp90 complexes in K562 cell extract; assay: Nano-LC-MS/MS of PU-beads pull-downs; format: binding; conditions: protein identified in PU-beads pull-down of K562 cell extract, QSTAR-Elite QTof MS
Procedure, shortened: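 Proteins were identified by data-dependent nano LC-MS/MS (QTof, ESI) and Mascot searching (p<0.05), then reported as spectral counts and coverage via Scaffold. Inputs were PU-bead versus control-bead pull-downs from lysate pre-cleared with control beads overnight at 4 °C, eluted by boiling in 2% SDS.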

[2] = tested on: Hsp90 complexes in Mia-PaCa-2 cell extract; assay: Nano-LC-MS/MS of PU-beads pull-downs; format: binding, human; conditions: protein identified in PU-beads pull-down of Mia-PaCa-2 cell extract; QSTAR-Elite QTof MS
Procedure, shortened: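 They came from PU-bead pull-downs of pre-cleared lysates (control beads, overnight, 4 °C), eluted by boiling in 2% SDS, gel-separated and run by data-dependent nano-ESI QTof MS/MS.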

Row | Molecule | Number of Assigned Spectra, K562 Prep 1 [1] | Number of Assigned Spectra, K562 Prep 2 [1] | Number of Assigned Spectra, Mia-Paca 2 [2]
1 | B1 | 4 | 5 | 0
2 | B2 | 2 | 2 | 3
3 | B3 | 5 | 1 | 2
4 | B4 | 4 | 1 | 1
5 | B5 | 1 | 7 | 0
6 | B6 | 14 | 2 | 0
